Measurements: US20130078263A1

Target: HLA-DR on human peripheral blood mononuclear cells (human)
Assay: cell-based or functional assay

frequency of CD3+ class II-DR+ cells, IMMU-114-treated MLR, representative result: 4%
frequency of CD3+ class II-DR+ cells, IMMU-114-treated resting PBMCs, representative result: 0.5%
frequency of CD11c+ class II-DR+ cells, IMMU-114-treated MLR, representative result: 2.3%
frequency of CD11c+ class II-DR+ cells, IMMU-114-treated resting PBMCs, representative result: 0.4%
frequency of CD14+ class II-DR+ cells, IMMU-114-treated MLR, representative result: 2.2%
frequency of CD14+ class II-DR+ cells, IMMU-114-treated resting PBMCs, representative result: 0.5%
reduction of live mDC1 in human PBMCs after 3 days with 5 µg/ml antibody (flow cytometry): 59.2%
reduction of live mDC2 in human PBMCs after 3 days with 5 µg/ml antibody (flow cytometry): 85%
reduction of pDCs in human PBMCs (flow cytometry): 50%
B1: IMMU-114 (antibody, from a related filing, IgG4, V domains shown)
VH: QVQLQQSGSELKKPGASVKVSCKASGFTFTNYGMNWVKQAPGQGLKWMGWINTYTREPTYADDFKGRFAFSLDTSVSTAYLQISSLKADDTAVYFCARDITAVVPTGFDYWGQGSLVTVSS
VL: DIQLTQSPSSLSASVGDRVTITCRASENIYSNLAWYRQKPGKAPKLLVFAASNLADGVPSRFSGSGSGTDYTFTISSLQPEDIATYYCQHFWTTPWAFGGGTKLQIKR
